Assays:
Assay in all cases: GST pull-down, 35S-Met protein vs GST fusion; - means no detectable binding (footnote a)
GST-CRN-6 = target: T1, GST-CRN-6 (C. elegans, UniProt P08515 1-218 = GST; P34508 1-373)
T1 construct: Two crn-6 cDNAs (700 bp and 1.1 kb) were isolated; the longer one made the GST fusion; also called CRN-6 GST-fusion protein
Procedure, shortened: (§1)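 GST alone or GST fusions (5 μg) on glutathione beads incubated 2 hours at 4° C. with in vitro translated ³⁵S-Met-labeled proteins; bound protein by 12% SDS-PAGE and autoradiography. Scored against background binding of ³⁵S-luciferase to GST fusions and of labeled proteins to GST.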

GST-CRN-5 = target: T2, GST-CRN-5 (C. elegans, UniProt G5EG59 1-214)
T2 construct: also called CRN-5 GST-fusion protein; not shown: GST carrier and the linker of vector pGEX4T-2
T2 sequence: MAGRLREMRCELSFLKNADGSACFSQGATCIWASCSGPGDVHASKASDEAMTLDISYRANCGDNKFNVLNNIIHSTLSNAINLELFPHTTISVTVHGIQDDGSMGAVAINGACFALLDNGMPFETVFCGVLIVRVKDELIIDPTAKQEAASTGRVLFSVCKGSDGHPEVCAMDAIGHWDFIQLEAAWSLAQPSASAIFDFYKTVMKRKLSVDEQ
Procedure, shortened: as §1

GST-CRN-1 = target: T3, GST-CRN-1 (C. elegans, UniProt Q9N3T2 21-382)
T3 construct: also called CRN-1 GST-fusion protein; not shown: glutathione S-transferase tag encoded by vector pGEX4T-2
T3 sequence (looked up): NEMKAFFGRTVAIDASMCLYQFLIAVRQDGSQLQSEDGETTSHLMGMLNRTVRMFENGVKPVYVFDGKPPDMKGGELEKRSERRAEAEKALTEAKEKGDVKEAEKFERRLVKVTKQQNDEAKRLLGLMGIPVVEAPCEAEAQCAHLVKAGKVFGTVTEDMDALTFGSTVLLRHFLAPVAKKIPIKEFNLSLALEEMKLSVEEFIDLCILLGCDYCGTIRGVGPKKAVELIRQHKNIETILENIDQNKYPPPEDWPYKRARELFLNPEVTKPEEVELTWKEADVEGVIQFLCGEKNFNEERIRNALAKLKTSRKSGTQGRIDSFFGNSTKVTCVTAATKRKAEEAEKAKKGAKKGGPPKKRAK
Procedure, shortened: as §1

Measured: binding result

T1 sequence (P08515 1-218, tags or fused parts left off): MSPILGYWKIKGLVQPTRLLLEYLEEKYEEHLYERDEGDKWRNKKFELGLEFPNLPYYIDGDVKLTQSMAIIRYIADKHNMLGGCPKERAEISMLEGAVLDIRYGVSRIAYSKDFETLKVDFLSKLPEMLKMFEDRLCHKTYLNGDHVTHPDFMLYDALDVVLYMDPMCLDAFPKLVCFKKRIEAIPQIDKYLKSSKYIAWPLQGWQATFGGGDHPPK

B1: ^35S-Methionine labeled CRN-2 (enzyme, C. elegans)
chain: MALYELVDIGANLGHPSYQKDLNDVLDRAKQAGLSKIMVTGTSEKISHECADLVEKYPGFLYFTAGVHPHDAKDWNDGTLEALKKLQENPSCVAVGECGLDFNRNFSPQDVQKEVFAKQVDMAVKLQKPLFIHEREAHEDMVKILTAAGPSLPPAVIHCFTGTVVEAKKYLEMGFYIGLTGFLWKDRSDNGVQAGLRSGEIPIEKLVLETDAPYMYPKINDKKIPKEIKSLITPETEALHNFSSFNRNEPCSLAAVCELVAAFAGRDPKEVAKITTENAKKVYKLE
no binding: all assays above
